Substitutions are numbered along the chain they refer to. Numbers in names are those of the source.
B1: 6-phosphogluconate dehydrogenase (6PGDH) (Thermotoga maritima MSB8; A11G/A447V/D294V/D82L/I120F/K27R/N387S/Q86L/R33I/T34I/T83L/Y383C) (protein)
chain: MKSHIGLIGLGVMGQNLALNIARKGYRVSVYNIIAQRTEEFVKNRVTNEEIEPHYDIESFVKSLERPRKIILMVKAGKPVDLLISLLLPHLEPGDLIIDGGNSHYMDTERRFKELSEKGFLFLGMGVSGGEYGALHGPSLMPGGSREAYNLVEEILLEIAAKTEDGPCCTYVGERSAGHFVKMVHNGIEYAIMQAIAEVYHIMRDVLSLSSEEMSSIFEEWNRGELSSFLVEITYKILRKKDEETGKPMVDVILDKAEQKGTGKWTSQAALDLGIPTPSINLAVVERVISHFKVIRTRLSKLYNKRRSATQGSEEFLRDLRNSLFFAMFMAFSQGMWLIAEASKEFGYGVSLSEVLRIWKGGCIIRAKLIDTLRRYISNENACLLESEEVMNLLKGKIDSLKNILKASIENEIPVPVLSSSYNYFMSLTEERLPANLIQAQRDFFGVHTFERVDREGVFHINWEEGEIG
B2: 6-phosphogluconate dehydrogenase (6PGDH) (Thermotoga maritima MSB8; A11G/A447V/D294V/D82L/F326S/F60Y/I120F/K118N/K27R/N387S/Q86L/R33I/T34I/T83L/Y383C) (protein)
chain: B1 chain with F60Y, K118N, F326S
B3: 6-phosphogluconate dehydrogenase (6PGDH) (Thermotoga maritima MSB8) (protein)
chain: MKSHIGLIGLAVMGQNLALNIARKGYKVSVYNRTAQRTEEFVKNRVTNEEIEPHYDIESFVKSLERPRKIILMVKAGKPVDDTISQLLPHLEPGDLIIDGGNSHYMDTERRFKELSEKGILFLGMGVSGGEYGALHGPSLMPGGSREAYNLVEEILLEIAAKTEDGPCCTYVGERSAGHFVKMVHNGIEYAIMQAIAEVYHIMRDVLSLSSEEMSSIFEEWNRGELSSFLVEITYKILRKKDEETGKPMVDVILDKAEQKGTGKWTSQAALDLGIPTPSINLAVVERVISHFKDIRTRLSKLYNKRRSATQGSEEFLRDLRNSLFFAMFMAFSQGMWLIAEASKEFGYGVSLSEVLRIWKGGCIIRAKLIDTLRRYISNENAYLLENEEVMNLLKGKIDSLKNILKASIENEIPVPVLSSSYNYFMSLTEERLPANLIQAQRDFFGAHTFERVDREGVFHINWEEGEIG
B4: 6-phosphogluconate dehydrogenase (6PGDH) (Thermotoga maritima MSB8; A11G/R33I/T34I) (protein)
chain: B3 chain with A11G, R33I, T34I
B5: 6-phosphogluconate dehydrogenase (6PGDH) (Thermotoga maritima MSB8; R33I/T34I) (protein)
chain: B3 chain with R33I, T34I
B6: 6-phosphogluconate dehydrogenase (6PGDH) (Thermotoga maritima MSB8; A11G/D82L/Q86L/R33I/T34I/T83L) (protein)
chain: B3 chain with A11G, R33I, T34I, D82L, T83L, Q86L

Each molecule was assayed against glucose-6-phosphate dehydrogenase (G6PDH) (Thermotoga maritima, UniProt Q9X0N9) (assay: specific activity of purified enzyme). Conditions: co-substrate glucose 6-phosphate.
Chain of glucose-6-phosphate dehydrogenase (G6PDH) (Q9X0N9 whole entry): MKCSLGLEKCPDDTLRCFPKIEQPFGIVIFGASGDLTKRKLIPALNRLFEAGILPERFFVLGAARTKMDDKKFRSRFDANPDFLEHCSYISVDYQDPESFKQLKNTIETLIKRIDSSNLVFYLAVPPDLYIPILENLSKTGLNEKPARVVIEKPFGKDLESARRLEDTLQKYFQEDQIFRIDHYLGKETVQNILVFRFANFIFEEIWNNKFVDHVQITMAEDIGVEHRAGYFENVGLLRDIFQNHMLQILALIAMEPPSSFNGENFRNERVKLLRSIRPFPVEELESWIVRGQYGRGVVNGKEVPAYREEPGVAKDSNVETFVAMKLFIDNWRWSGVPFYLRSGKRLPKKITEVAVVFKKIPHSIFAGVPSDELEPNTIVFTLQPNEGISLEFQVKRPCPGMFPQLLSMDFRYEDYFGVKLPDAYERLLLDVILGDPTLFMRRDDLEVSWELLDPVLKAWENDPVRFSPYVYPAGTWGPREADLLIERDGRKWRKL
Assay type: biochemical

Row | Molecule | specific activity of purified enzyme
1 | NC(=O)c1ccc[n+]([C@@H]2O[C@H](COP(=O)([O-])O)[C@@H](O)[C@H]2O)c1 [NMN^+] | color intensities of colonies positively correlated with the specific activities of the purified dehydrogenases on NMN^+

What follows are molecules tested on NC(=O)c1ccc[n+]([C@@H]2O[C@H](COP(=O)(O)OP(=O)(O)OC[C@H]3O[C@@H](n4cnc5c(N)ncnc54)[C@H](OP(=O)(O)O)[C@@H]3O)[C@@H](O)[C@H]2O)c1 (assay: steady-state kinetics of purified enzyme). Conditions: apparent constants; co-substrate 6-phosphogluconate; assay details in supplement.
Assay type: biochemical, Thermotoga maritima

Row | Molecule | Km [mM] | kcat [s⁻¹] | kcat/Km [M⁻¹ s⁻¹]
2 | B1 | 0.22 ± 0.01 | 21.9 ± 0.2 | 101000
3 | B2 | 0.21 ± 0.01 | 23.6 ± 0.3 | 113000
4 | B3 | 0.0012 ± 0.0001 | 15.9 ± 0.2 | 1.34e+07
5 | B4 | 2.1 ± 0.1 | 28.3 ± 0.6 | 13200
6 | B5 | 11.5 ± 1.1 | 14.8 ± 0.7 | 1300
7 | B6 | 0.39 ± 0.02 | 21.1 ± 0.3 | 53700

What follows are molecules tested on NC(=O)c1ccc[n+]([C@@H]2O[C@H](COP(=O)([O-])O)[C@@H](O)[C@H]2O)c1 (assay: steady-state kinetics of purified enzyme). Conditions: apparent constants; co-substrate 6-phosphogluconate; assay details in supplement.
Assay type: biochemical, Thermotoga maritima

Row | Molecule | Km [mM] | kcat [s⁻¹] | kcat/Km [M⁻¹ s⁻¹]
8 | B1 | 15.1 ± 0.6 | 18.9 ± 0.4 | 1250
9 | B2 | 16.0 ± 1.1 | 25.8 ± 0.8 | 1620
10 | B3 | 30.6 ± 1.7 | 1.3 ± 0.1 | 42
11 | B4 | 20.7 ± 0.7 | 10.2 ± 0.2 | 490
12 | B5 | 37.9 ± 3.6 | 1.7 ± 0.1 | 46
13 | B6 | 27.5 ± 1.2 | 19.3 ± 0.4 | 700

From PMC8580058 (ACS catalysis, 2019)
